This data set in a line: self-splicing fitness, log relative to wild type (ln ratio); higher = more splicing; Tetrahymena group I intron in knt gene, E. coli kanamycin selection, DiMSum; sequences stand for … in CUCUCU…GGAGGGAAAAGUUAUCAGGCAUGCACCUGGUAGCUAGUCUUUAAACCAAUAGAUUGCAUCGGUUUAAAAGGCAAGACCGUCAAAUUGCGGGAAAGGGGUCAACAGCCGUUCAGUACCAAGUCUCAGGGGAAACUUUGAGAUGGCCUUGCAAAGGGUAUGGUAAUAAGCUGACGGACAUGGUCCUAACCACGCAGCCAAGUCCUAAGUCAACAGAUCUUCUGUUGAUAUGGAUGCAGUUCACAGACUAAAUGUCGGUCGGGGAAGAUGUAUUCUUCUCAUAAGAUAUAGUCGGACCUCUCCUUAAUGGGAGCUAGCGGAUGAAGUGAUGCAACACUGGAGCCGCUGGGAACUAAUUUGUAUGCGAAAGUAUAUUGAUUAGUUUUGGAGUACUCGUGGUCG
An outline of the steps:
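A randomised library covering all eight P1ex-region intron nucleotides was built with the intron in the knt kanamycin-resistance gene on pET-22b(+) and held in E. coli BL21(DE3). Cells were grown overnight at 37°C or 30°C on LB agar, with or without 25 μg/mL kanamycin, plus 100 μg/mL carbenicillin, 50 μM IPTG and 0.2% rhamnose, and pooled colonies were amplicon-sequenced on an Illumina HiSeq 2500. DiMSum fitness is the error-weighted combination of wild-type-normalised replicate fold changes, kanamycin versus none.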

± gives the uncertainty stated by the source.

For AUCCAGCAAUAUUACGGAUU, the “self-splicing fitness (ln)” value reads like this: (30 °C) -3.25 ± 0.12; (37 °C) -2.83 ± 0.21.

On to AUCCAGCAAUAUUACGGCGC, for which the “self-splicing fitness (ln)” value (30 °C) is -0.203 ± 0.1 and the “self-splicing fitness (ln)” value (37 °C) is -0.114 ± 0.14.

Regarding AUCCAGCAAUAUUACGGGUU, the “self-splicing fitness (ln)” value was -3.75 ± 0.15 (30 °C) and -2.89 ± 0.21 (37 °C).

Consider AUCCAGCAAUAUUACGGUAG, for which the “self-splicing fitness (ln)” value (30 °C) is -3.97 ± 0.2 and the “self-splicing fitness (ln)” value (37 °C) is -2.6 ± 0.15.

For the sequence AUCCAGCAAUAUUACGGUGC, the “self-splicing fitness (ln)” value reads like this: (30 °C) -1.6 ± 0.096; (37 °C) -1.27 ± 0.14.

On to AUCCAGCAAUAUUACGUAAA, for which the “self-splicing fitness (ln)” value was -1.3 ± 0.064 (30 °C) and -0.843 ± 0.093 (37 °C).

On to AUCCAGCAAUAUUACGUACA, for which the “self-splicing fitness (ln)” value was -1.28 ± 0.11 (30 °C) and -0.729 ± 0.18 (37 °C).

For AUCCAGCAAUAUUACGUACU, the “self-splicing fitness (ln)” value by setting is: (30 °C) -1.56 ± 0.14; (37 °C) -0.416 ± 0.15.

In the case of AUCCAGCAAUAUUACGUCGA, the “self-splicing fitness (ln)” value is -0.897 ± 0.097 (30 °C) and -0.557 ± 0.12 (37 °C).

In the case of AUCCAGCAAUAUUACGUGAC, the “self-splicing fitness (ln)” value reads like this: (30 °C) -1.03 ± 0.077; (37 °C) -0.702 ± 0.11.

Regarding AUCCAGCAAUAUUACGUUAC, the “self-splicing fitness (ln)” value by setting is: (30 °C) -3.89 ± 0.24; (37 °C) -2.59 ± 0.22.

In the case of AUCCAGCAAUAUUACGUUUU, the “self-splicing fitness (ln)” value (30 °C) is -2.04 ± 0.083 and the “self-splicing fitness (ln)” value (37 °C) is -1.15 ± 0.11.

Take AUCGAGCAAUAUUACGAAAC: the “self-splicing fitness (ln)” value (30 °C) is -2.27 ± 0.31.

For AUCGAGCAAUAUUACGAAAU, the “self-splicing fitness (ln)” value is -2.63 ± 0.37 (30 °C) and -1.87 ± 0.46 (37 °C).

Take AUCGAGCAAUAUUACGACUA: the “self-splicing fitness (ln)” value was -1.54 ± 0.24 (30 °C) and -0.741 ± 0.15 (37 °C).

Take AUCGAGCAAUAUUACGAGAU: the “self-splicing fitness (ln)” value is -2.58 ± 0.13 (30 °C) and -2.01 ± 0.17 (37 °C).

AUCGAGCAAUAUUACGAGGA: the “self-splicing fitness (ln)” value is, setting by setting: (30 °C) -1.16 ± 0.4; (37 °C) -2.07 ± 0.31.

Take AUCGAGCAAUAUUACGAGUG: the “self-splicing fitness (ln)” value was -3.32 ± 0.3 (30 °C) and -2.09 ± 0.32 (37 °C).

As for AUCGAGCAAUAUUACGAUGC, the “self-splicing fitness (ln)” value (30 °C) is -2.77 ± 0.47 and the “self-splicing fitness (ln)” value (37 °C) is -1.77 ± 0.42.

Turning to AUCGAGCAAUAUUACGCUGC, under “30 °C”, the “self-splicing fitness (ln)” value was -2.59 ± 0.45.

As for AUCGAGCAAUAUUACGGACG, the “self-splicing fitness (ln)” value by setting is: (30 °C) -2.42 ± 0.17; (37 °C) -2.96 ± 0.2.

Turning to AUCGAGCAAUAUUACGGCGA, the “self-splicing fitness (ln)” value was -1.24 ± 0.18 (30 °C) and -0.629 ± 0.17 (37 °C).

With AUCGAGCAAUAUUACGUCCU, the “self-splicing fitness (ln)” value was -1.18 ± 0.11 (30 °C) and -0.423 ± 0.18 (37 °C).

Turning to AUCGAGCAAUAUUACGUCUU, the “self-splicing fitness (ln)” value by setting is: (30 °C) -2.79 ± 0.12; (37 °C) -1.41 ± 0.12.

As for AUCGAGCAAUAUUACGUGAG, the “self-splicing fitness (ln)” value is -1.78 ± 0.11 (30 °C) and -1.53 ± 0.15 (37 °C).

Regarding AUCGAGCAAUAUUACGUGGA, the “self-splicing fitness (ln)” value was -3.68 ± 0.37 (30 °C) and -2.33 ± 0.22 (37 °C).

For the sequence AUCGAGCAAUAUUACGUUGU, the “self-splicing fitness (ln)” value (30 °C) was -4 ± 0.26 and the “self-splicing fitness (ln)” value (37 °C) was -3.62 ± 0.31.

AUCGAGCAAUAUUACGUUUA: the “self-splicing fitness (ln)” value reads like this: (30 °C) -2.49 ± 0.29; (37 °C) -2.26 ± 0.37.

In the case of AUCUAGCAAUAUUACGAAUG, the “self-splicing fitness (ln)” value is, setting by setting: (30 °C) -2.37 ± 0.18; (37 °C) -0.667 ± 0.19.

As to AUCUAGCAAUAUUACGACCC, the “self-splicing fitness (ln)” value (30 °C) is -0.615 ± 0.21 and the “self-splicing fitness (ln)” value (37 °C) was determined as 0.543 ± 0.31.

Turning to AUCUAGCAAUAUUACGACUG, the “self-splicing fitness (ln)” value (30 °C) was -2.01 ± 0.14 and the “self-splicing fitness (ln)” value (37 °C) is -1.07 ± 0.15.

Take AUCUAGCAAUAUUACGAGCC: the “self-splicing fitness (ln)” value (30 °C) was -2.69 ± 0.45.

As to AUCUAGCAAUAUUACGAGGG, the “self-splicing fitness (ln)” value by setting is: (30 °C) -2.92 ± 0.16; (37 °C) -2.18 ± 0.18.

In the case of AUCUAGCAAUAUUACGAGUA, the “self-splicing fitness (ln)” value by setting is: (30 °C) -2.58 ± 0.27; (37 °C) -1.53 ± 0.18.

In the case of AUCUAGCAAUAUUACGAUAA, the “self-splicing fitness (ln)” value is -2.1 ± 0.22 (30 °C) and -1.1 ± 0.3 (37 °C).

For AUCUAGCAAUAUUACGAUGG, the “self-splicing fitness (ln)” value is -3.59 ± 0.2 (30 °C) and -1.75 ± 0.19 (37 °C).

Turning to AUCUAGCAAUAUUACGAUUC, the “self-splicing fitness (ln)” value (30 °C) was -2.85 ± 0.18 and the “self-splicing fitness (ln)” value (37 °C) was -1.23 ± 0.16.

With AUCUAGCAAUAUUACGCAGU, the “self-splicing fitness (ln)” value reads like this: (30 °C) -2.53 ± 0.18; (37 °C) -2.09 ± 0.2.

The values are drawn from the supplement of paper PMC7877785.
